Here are results for twelve molecules from patent US20120107330A1 (published 2012).

Assay [1] addresses T1, human serum albumin (HSA, Sigma-Aldrich) (human, UniProt P02768 25-609).
T1 construct: also called human albumin
Nature of the assay: BIAcore, HSA on CM5 chip. As for the experimental part:
FIG. 23. BIAcore analysis for binding of DOM0100-AlbudAb in-line fusions to human serum albumin (HSA). HSA (Sigma-Aldrich) was coated on a BIAcore CM5 chip using EDC/NHS chemistry according to manufacturer's instructions. Subsequently, the DMS constructs, each consisting N-terminally to C-terminally of an anti-TNFR1 dAb-Linker-AlbudAb and identified in Table 6, were injected at 1 μM over the HSA surface and binding was monitored. […] The corresponding BIAcore trace for each DMS clone is indicated with an arrow.

For assay [2], the target named is T2, mouse serum albumin (MSA, Sigma-Aldrich) (mouse, UniProt P07724 25-608).
T2 construct: also called mouse albumin
Nature of the assay: BIAcore, MSA on CM5 chip. As for the experimental part: FIG. 22. BIAcore analysis for binding of DOM0100-AlbudAb in-line fusions to mouse serum albumin (MSA). MSA (Sigma-Aldrich) was coated on a BIAcore CM5 chip using EDC/NHS chemistry according to manufacturer's instructions. Subsequently, the DMS constructs, each consisting N-terminally to C-terminally of an anti-TNFR1 dAb-Linker-AlbudAb and identified in Table 6, were injected at 1 μM over the MSA surface and binding was monitored. […] The corresponding BIAcore trace for each DMS clone is indicated with an arrow.
After expression and purification, all constructs were tested on the BIAcore for binding to both mouse and human serum albumin. The off-rates were determined and used to discriminate between the AlbudAbs for their suitability in prolonging the half-life of the fusion molecule. Whereas the linker had little influence on the affinity of the AlbudAb for albumin, a significant difference existed between the dAbs and their albumin affinity. The best AlbudAb for mouse binding was DOM7h-11-15 followed by DOM7m-16 and DOM7h-11-12 (FIG. 22).

The target in assay [3] is T3, human TNFR1 (recombinant, R&D Systems cat no. 636-R1/CF, biotinylated) (human, UniProt P19438 30-211, limits assumed, biotinylated with EZ-Link NHS-LC-LC-biotin).
T3 construct: it is not tied to the BIAcore reagent; also called p55; hTNFR1
T3 sequence (looked up): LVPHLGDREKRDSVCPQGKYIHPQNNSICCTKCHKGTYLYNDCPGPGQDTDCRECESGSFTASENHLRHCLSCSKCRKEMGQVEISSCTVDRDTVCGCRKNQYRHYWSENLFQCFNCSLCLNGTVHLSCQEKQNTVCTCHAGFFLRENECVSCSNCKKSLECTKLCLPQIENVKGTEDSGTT
Nature of the assay: BIAcore, human TNFR1.

The target in assay [4] is T4, human TNFR1 on MRC-5 cells (human, UniProt P19438 30-455).
T4 sequence (looked up): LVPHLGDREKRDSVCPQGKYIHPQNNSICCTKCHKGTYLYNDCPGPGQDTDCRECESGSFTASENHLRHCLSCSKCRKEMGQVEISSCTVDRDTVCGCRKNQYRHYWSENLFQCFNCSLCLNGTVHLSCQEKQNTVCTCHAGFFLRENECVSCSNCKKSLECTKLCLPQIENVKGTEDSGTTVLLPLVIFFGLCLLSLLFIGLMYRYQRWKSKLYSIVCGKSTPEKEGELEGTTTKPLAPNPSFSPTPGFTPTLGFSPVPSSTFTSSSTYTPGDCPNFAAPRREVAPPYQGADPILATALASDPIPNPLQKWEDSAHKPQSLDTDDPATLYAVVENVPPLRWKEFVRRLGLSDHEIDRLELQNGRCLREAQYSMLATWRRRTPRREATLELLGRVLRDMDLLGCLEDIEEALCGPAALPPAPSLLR
Nature of the assay: cell-based or functional assay.

The target in assay [5] is T4, human TNFR1 on MRC-5 cells. Nature of the assay: cell-based or functional assay. The source holds these as a separate data set.
For assay [6], the target named is T5, mouse TNFR1 on L929 cells (mouse, UniProt P25118 30-454).
T5 sequence (looked up): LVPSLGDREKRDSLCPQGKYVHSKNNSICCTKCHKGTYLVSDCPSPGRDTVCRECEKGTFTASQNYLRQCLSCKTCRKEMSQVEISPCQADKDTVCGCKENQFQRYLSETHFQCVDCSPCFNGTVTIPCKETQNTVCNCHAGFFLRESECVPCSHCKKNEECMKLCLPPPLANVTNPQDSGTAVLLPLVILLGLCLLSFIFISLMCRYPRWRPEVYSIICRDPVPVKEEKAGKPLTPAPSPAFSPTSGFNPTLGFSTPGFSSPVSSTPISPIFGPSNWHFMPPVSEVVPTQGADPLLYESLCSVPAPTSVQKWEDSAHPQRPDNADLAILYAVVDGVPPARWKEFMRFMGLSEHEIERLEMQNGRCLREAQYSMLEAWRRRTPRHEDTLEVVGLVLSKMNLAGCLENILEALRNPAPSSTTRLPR
Nature of the assay: cell-based or functional assay.

Assay [7] deals with T3, human TNFR1 (recombinant, R&D Systems …). Nature of the assay: BIAcore, human TNFR1 on SA chip. The source says: (§1) BIAcore was done to determine the association and dissociation rates of the different dAbs and in that way establish their binding affinity for both human and mouse TNFR1. Experiments were done using biotinylated TNFR1 (R&D Systems), of the respective species, coupled to streptavidin-coated BIAcore chips followed by injection of a concentration range of the dAbs.
A general note: Surface plasmon resonance follows binding to a sensor surface in real time, without labels.

The target in assay [8] is T6, mouse TNFR1 (recombinant, R&D Systems cat no. 425-R1-050/CF, biotinylated) (mouse, UniProt P25118 22-212, biotinylated with EZ-Link NHS-LC-LC-biotin).
T6 construct: also called murine TNFR1; biotinylated mouse TNFR1
T6 sequence (looked up): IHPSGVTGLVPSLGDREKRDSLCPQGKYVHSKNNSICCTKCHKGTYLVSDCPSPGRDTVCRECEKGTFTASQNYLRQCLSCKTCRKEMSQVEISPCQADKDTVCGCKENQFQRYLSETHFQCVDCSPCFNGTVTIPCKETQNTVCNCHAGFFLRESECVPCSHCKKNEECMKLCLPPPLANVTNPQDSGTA
Nature of the assay: BIAcore, mouse TNFR1 on SA chip.
Description: as §1

T1 sequence (P02768 25-609 limits assumed): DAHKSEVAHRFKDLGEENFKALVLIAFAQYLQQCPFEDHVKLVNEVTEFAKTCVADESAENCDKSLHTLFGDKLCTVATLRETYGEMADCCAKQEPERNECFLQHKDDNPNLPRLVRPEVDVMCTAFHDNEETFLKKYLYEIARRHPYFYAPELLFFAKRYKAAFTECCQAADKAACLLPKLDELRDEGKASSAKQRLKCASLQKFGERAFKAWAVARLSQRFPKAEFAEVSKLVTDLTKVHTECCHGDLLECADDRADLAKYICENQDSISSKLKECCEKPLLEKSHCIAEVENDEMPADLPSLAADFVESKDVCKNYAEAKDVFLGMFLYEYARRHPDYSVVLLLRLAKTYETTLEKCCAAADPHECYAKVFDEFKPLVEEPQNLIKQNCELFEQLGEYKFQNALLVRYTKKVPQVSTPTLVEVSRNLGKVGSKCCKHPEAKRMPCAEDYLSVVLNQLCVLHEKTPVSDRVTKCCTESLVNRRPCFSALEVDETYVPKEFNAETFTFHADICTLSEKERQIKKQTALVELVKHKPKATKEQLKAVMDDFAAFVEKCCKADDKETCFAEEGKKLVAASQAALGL

B1: DMS0192 (bispecific antibody)
chain: EVQLLESGGGLVQPGGSLRLSCAASGFTFVKYSMGWVRQAPGKGPEWVSQISNTGDRTYYADSVKGRFTISRDNSKNTLYLQMNSLRAEDTAVYYCAIYTGRWEPFDYWGQGTLVTVSSASTSGPSDIQMTQSPSSLSASVGDRVTITCRASQSIIKHLKWYQQKPGKAPKLLIYGASRLQSGVPSRFSGSGSGTDFTLTISSLQPEDFATYYCQQGARWPQTFGQGTKVEIKRAAAEQKLISEEDLN
notes: anti-TNFR1 dAb / AlbudAb in-line fusion
As usually defined, the koff is the rate constant with which the complex falls apart. Turning to B1, the binding result in assay [1] is listed as “no binding (tested: 1 µM)”. Further, the koff in assay [2] is 0.09 s⁻¹.

B2: DMS0191 (bispecific antibody)
chain: EVQLLESGGGLVQPGGSLRLSCAASGFTFVKYSMGWVRQAPGKGPEWVSQISNTGDRTYYADSVKGRFTISRDNSKNTLYLQMNSLRAEDTAVYYCAIYTGRWEPFDYWGQGTLVTVSSASTDIQMTQSPSSLSASVGDRVTITCRASQSIIKHLKWYQQKPGKAPKLLIYGASRLQSGVPSRFSGSGSGTDFTLTISSLQPEDFATYYCQQGTRWPQTFGQGTKVEIKRAAAEQKLISEEDLN
notes: as for B1
On to B2, for which, in assay [1], the binding result is “no binding (tested: 1 µM)”. Also, in assay [2], the koff is 0.11 s⁻¹.

B3: DMS0190 (bispecific antibody)
chain: EVQLLESGGGLVQPGGSLRLSCAASGFTFVKYSMGWVRQAPGKGPEWVSQISNTGDRTYYADSVKGRFTISRDNSKNTLYLQMNSLRAEDTAVYYCAIYTGRWEPFDYWGQGTLVTVSSASTSGPSDIQMTQSPSSLSASVGDRVTITCRASRPIGTTLSWYQQKPGKAPKLLILWNSRLQSGVPSRFSGSGSGTDFTLTISSLQPEDFATYYCAQAGTHPTTFGQGTKVEIKRAAAEQKLISEEDLN
notes: as for B1
For B3, the koff was 0.019 s⁻¹ in assay [1] and 0.16 s⁻¹ in assay [2].

B4: DMS0189 (bispecific antibody)
chain: EVQLLESGGGLVQPGGSLRLSCAASGFTFVKYSMGWVRQAPGKGPEWVSQISNTGDRTYYADSVKGRFTISRDNSKNTLYLQMNSLRAEDTAVYYCAIYTGRWEPFDYWGQGTLVTVSSASTDIQMTQSPSSLSASVGDRVTITCRASRPIGTTLSWYQQKPGKAPKLLILWNSRLQSGVPSRFSGSGSGTDFTLTISSLQPEDFATYYCAQAGTHPTTFGQGTKVEIKRAAAEQKLISEEDLN
notes: as for B1
With B4, the figures for the koff in assay [1] and in assay [2] were 0.017 s⁻¹ and 0.13 s⁻¹, respectively.

B5: DOM1h-574-10 (other)
VH: EVQLLESGGGLVQPGGSLRLSCAASGFTFGKYSMGWVRQAPGKDLEWVSQISNTGGHTYYADSVKGRFTISRDNSKNTLYLQMNSLRAEDTAVYYCAIYTGRWEPFDYWGQGTLVTVSS
notes: VH dAb
A word on the Kd: it is the free concentration of one partner at which half of the binding sites on the other are occupied at equilibrium, for simple one-to-one binding. On to B5, for which, in assay [3], the Kd worked out at 19 nM. In addition, the “MRC-5 ND50 (TNFα-mediated IL-8 release)” value in assay [4] was found to be 100 nM.

B6: DOM1h-574-13 (other)
VH: EVQLLESGGGLVQPGGSLRLSCAASGFTFVKYSMGWVRQAPGKGLEWVSQISNTGDRTYYADSVKGRFTISRDNSKNTLYLQMNSLRAEDTAVYYCAKYTGRWEPFDYWGQGTLVTVSS
notes: VH dAb
On to B6, for which the Kd in assay [3] turned out to be 44 nM. The “MRC-5 ND50 (TNFα-mediated IL-8 release)” value in assay [4] is 300 nM.

B7: DOM1h-574-11 (other)
VH: EVQLLESGGGLVQPGGSLRLSCAASGFTFVKYSMGWVRQAPGKGLEWVSQISNTGGHTYYADSVKGRFTISRDNSKNTLYLQMNSLRAEDTAVYYCAKYTGRWEPFDHWGQGTLVTVSS
notes: VH dAb
In the case of B7, the Kd in assay [3] turned out to be 200 nM. Further, the “MRC-5 ND50 (TNFα-mediated IL-8 release)” value in assay [4] came out at 800 nM.

B8: DOM1h-574-18 (other)
VH: EVQLLESGGGLVQPGGSLRLSCAASGFTFGKYSMGWVRQAPGKDLEWVSQISNTGDRTYYADSVKGRFTISRDNSKNTLYLQMNSLRAEDTAVYYCAIYTGRWEPFDYWGQGTLVTVSS
notes: VH dAb
With B8, the Kd in assay [3] was 4.1 nM. In addition, in assay [4], the “MRC-5 ND50 (TNFα-mediated IL-8 release)” value turned out to be 17 nM.

B9: DOM1h-574-156 (other)
VH: EVQLLESGGGLVQPGGSLRLSCAASGFTFFKYSMGWVRQAPGKGLEWVSQISDTADRTYYAHSVKGRFTISRDNSKNTLYLQMNSLRAEDTAVYYCAIYTGRWVPFEYWGQGTLVTVSS
notes: VH dAb
The term kon denotes the rate constant with which the complex forms. For B9, the “Human MRC5 ND50” value in assay [5] amounted to 0.9 nM. Also, the “Mouse L929 ND50” value in assay [6] amounted to 22 nM. Also, in assay [7], the Kd is 0.15 nM, the koff came to 4.3e-05 s⁻¹ and the kon amounted to 300000 M⁻¹ s⁻¹. Further, in assay [8], the Kd turned out to be 2.1 nM, the koff came to 0.0003 s⁻¹ and the kon stood at 140000 M⁻¹ s⁻¹.

B10: DOM1h-574-12 (other)
VH: EVQLLESGGGLVQPGGSLRLSCAASGFTFVKYSMGWVRQAPGKGLEWVSQISNTGDHTYYADSVKGRFTISRDNSKNTLYLQMNSLRAEDTAVYYCAKYTGRWEPFDYWGQGTLVTVSS
notes: VH dAb
Turning to B10, the Kd in assay [3] came to 23 nM. Besides, the “MRC-5 ND50 (TNFα-mediated IL-8 release)” value in assay [4] is 130 nM.

B11: DOM1h-574-17 (other)
VH: EVQLLESGGGLVQPGGSLRLSCAASGFTFVKYSMGWVRQAPGKGPEWVSQISNTGDHTYYADSVKGRFTISRDNSKNTLYLQMNSLRAEDTAVYYCAIYTGRWEPFDYWGQGTLVTVSS
notes: VH dAb
Take B11: in assay [3], the Kd turned out to be 8.4 nM. Besides, the “MRC-5 ND50 (TNFα-mediated IL-8 release)” value in assay [4] was 20 nM.

B12: DOM1h-574-162 (other)
VH: EVQLLESGGGLVQPGGSLRLSCAASGFTFFKYSMGWVRQAPGKGLEWVSQISDTADRTYYSHSVKGRFTISRDNSKNTLYLQMNSLRAEDTAVYYCAIYTGRWVPFEYWGQGTLVTVSS
notes: VH dAb
With B12, the “Human MRC5 ND50” value in assay [5] worked out at 1.2 nM. Besides, in assay [6], the “Mouse L929 ND50” value is 27 nM. Moreover, in assay [7], the equilibrium dissociation constant (Kd) amounted to 0.15 nM, the koff is 4.4e-05 s⁻¹ and the kon is 290000 M⁻¹ s⁻¹. Also, in assay [8], the Kd was found to be 2.5 nM, the koff was determined as 0.00034 s⁻¹ and the kon is 140000 M⁻¹ s⁻¹.
